Earlier results in publication PMC5897016.
pKd: −log10 of the molar value.

Target: Complement C5 (Homo sapiens) (UniProt P01031)

Substance: eculizumab
- pKd: > 10.30
